Results taken from the supplement of paper PMC10567573.
± gives the standard deviation.

Assay: protein stability index of a GFP-peptide fusion (GPS, HEK-293T) (PSI 1-6); higher = more stable
[1] = treatment: DMSO, c terminus: a fixed tail appended
[2] = treatment: MLN4924 1 uM, 8 h, c terminus: a fixed tail appended
[3] = treatment: DMSO, c terminus: native
[4] = treatment: MLN4924 1 uM, 8 h, c terminus: native
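Further: 24-mer peptide tiles fused after GFP, lentivirally expressed, FACS-sorted into six equal bins by GFP/DsRed ratio, decoded by Illumina sequencing, PSI is the read-weighted mean bin number.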

| Sequence | protein stability index [1] | protein stability index [2] | protein stability index [3] | protein stability index [4] |
| --- | --- | --- | --- | --- |
| AEGALEEVPLEVLRQRESKWLDML [TBC1D10A] | 4.09 ± 0.88 | 3.91 ± 0.47 | – | – |
| RAPSERSGPAASEHSHRSHHSLAS [DVL3] | 4.68 ± 0.28 | 4.68 ± 0.21 | – | – |
| LQIELGKCKAEHDQLLLNYAKKES [LMNB1] | 3.29 ± 0.24 | 3.33 ± 0.33 | – | – |
| SEEELAAATTSKEQEPIGTDLDAV [MYBL2] | 5.71 ± 0.19 | 5.58 ± 0.25 | – | – |
| LVLKAHHDIVRFLVQLDDYRFASA [WDR41] | 2.96 ± 0.52 | 2.96 ± 0.67 | – | – |
| PDVTQLTPPSHDLTDNIFPRLVC [ANKRD17] | – | – | 2.45 ± 0.28 | 2.4 ± 0.25 |
| LLPVQVVTEHPLELIRVEVEILDL [PCDHGC5] | 3.02 ± 0.66 | 3.05 ± 0.85 | – | – |
| EQQTMDNLEKQLICPICLEMFTKP [TRIM55] | 3.77 ± 0.38 | 4.14 ± 0.38 | – | – |
| LGLDNRLFGHPGLDMELGPSQGQE [ADAMTSL2] | 4.84 ± 0.21 | – | – | – |
| WHDVQVSSAYVKTSEKLGEWNEKV [TPD52L2] | 3.64 ± 0.26 | 3.8 ± 0.24 | – | – |
| TCQRVNGIKVQNGGIVTDTPASNH [SLC19A2] | 4.08 ± 0.34 | 4.22 ± 0.17 | – | – |
| SPFAQFACDNGLNVRGGKPDDITV [PPTC7] | 4.22 ± 0.23 | 4.14 ± 0.16 | – | – |
| TTDDTTAMASASSSATGSFSYPE [MAGEA10] | – | – | 5.28 ± 0.14 | 5.4 ± 0.066 |
| GEPGAAAPAMYDDESAIDFSAYID [CEBPD] | 5.28 ± 0.21 | 5.08 ± 0.29 | – | – |
| PEEKIWEELSVLEVFEGREDSILG [MAGEA3] | 4.6 ± 0.44 | 4.67 ± 0.11 | – | – |
| TVAASDPDTGDNARLTYSIVGNQV [PCDHGC5] | 4.36 ± 0.26 | 4.31 ± 0.18 | – | – |
| YKKGRMMKDISNLEENDETRFILS [SLC6A17] | 3.35 ± 0.29 | 3.09 ± 0.39 | – | – |
| HSLEYIDLMETTQYMNEGELRVLA [HDAC6] | 2.79 ± 0.4 | 3.04 ± 0.34 | – | – |
| RYHVIRKLGWGHFSTVWLCWDMQG [SRPK2] | 2.83 ± 0.74 | 2.69 ± 0.27 | – | – |
| RTSVGVAVLGGFLYAVGGQDGVSC [KLHL20] | 2.37 ± 0.17 | 2.45 ± 0.38 | – | – |
| HSGFEDELSEVLENQSSQAELKEA [CHGA] | 5.5 ± 0.29 | 5.27 ± 0.33 | – | – |
| EAMFCDFPKINHGILYDEEKYKPF [CFHR2] | 2.49 ± 0.34 | 2.81 ± 0.26 | – | – |
| IFGDLCGNMANLSLHDHDGSSGAS [DVL3] | 3.9 ± 0.45 | 4.27 ± 0.17 | – | – |

| Sequence | protein stability index [1] | protein stability index [2] | protein stability index [3] | protein stability index [4] |
| --- | --- | --- | --- | --- |
| ALVRWWNGIGAVLDFTHPKARDWF [MYORG] | 2.59 ± 0.52 | 2.3 ± 0.51 | – | – |
| ASLENSLEETKGRYCMQLSQIQGL [KRT16] | 3.3 ± 0.39 | 3.17 ± 0.25 | – | – |
| FNSTYNARVKAFNKTGVSPYSKTL [TRIM9] | 2.55 ± 0.41 | 2.85 ± 0.38 | – | – |
| AGEFTGWEKVGSGGFGQVYKVRHV [RIPK4] | 2.46 ± 0.61 | 2.25 ± 0.29 | – | – |
| CGNIKAPSLQAWNDAPCDKTFLFI [CD207] | 2.72 ± 0.41 | 2.49 ± 0.55 | – | – |
| KAALAALCPGDLIQAINGESTELM [PDLIM4] | 3.495 ± 0.025 | 3.77 ± 0.21 | – | – |
| MSSVQQQPPPPRRVTNVGSLLLTP [WASL] | 3.7 ± 0.28 | 3.75 ± 0.3 | – | – |
| GRAQDDVSEWASKAKANGITMYAV [MATN2] | 2.56 ± 0.36 | 2.62 ± 0.39 | – | – |
| RGRAVLREAGFHQYEVSNFARNGA [RSAD1] | 3.36 ± 0.54 | 3.37 ± 0.48 | – | – |
| EWELLDPTQKALYNDVMQENYETV [ZNF75A] | 4.77 ± 0.086 | 4.98 ± 0.19 | – | – |
| TTRHGEVGSALHRESFTSRQKTSG [C10orf62] | 4.75 ± 0.38 | 4.78 ± 0.083 | – | – |
| KLIDRLEKKDLKLEPPEEEIIEGN [NECAB1] | 4.88 ± 0.32 | 4.8 ± 0.19 | – | – |
| EKKKGKAKKKRLTKADIGTPSNFQ [WASL] | 4.62 ± 0.099 | 4.63 ± 0.062 | – | – |
| CPECYPDNPANRSLVLPWSFPLEW [TOR1AIP2] | 2.5 ± 0.28 | 2.77 ± 0.24 | – | – |
| ASLNGYRLGERVLQVSFKTSKQHK [ELAVL3] | 3.45 ± 0.13 | 3.52 ± 0.32 | – | – |
| APNRFFQKLNVFKNFIGLLQNQNF [NLN] | – | 2.24 ± 0.82 | – | – |
| CEITKRRRKACQACRFTKCLRVGM [ESRRA] | 2.26 ± 0.17 | 2.32 ± 0.22 | – | – |
| ICEDSFDGRSLSKLNLCEDGPCHK [SCARA5] | 4.55 ± 0.15 | 4.57 ± 0.16 | – | – |
| CRDLVDEAKNYLLLPQERPLMQGP [KLHL20] | 2.65 ± 0.33 | 2.75 ± 0.12 | – | – |
| TISFLGCAIQMFSFLFLGCSHSFL [OR10K2] | 3.14 ± 0.41 | 3.6 ± 0.52 | – | – |
| VAEQVGIDKGDIPDLTQAPSSLME [SNAP91] | 4.97 ± 0.38 | 5.03 ± 0.23 | – | – |
| ELSGAPRCHTVPCAGSTALQEPGE [PXN] | 4.9 ± 0.28 | 5.05 ± 0.32 | – | – |
| SYCPHCGEESSKAKEVTIAKADTT [EHMT1] | 4.27 ± 0.19 | 4.58 ± 0.19 | – | – |

| Sequence | protein stability index [1] | protein stability index [2] | protein stability index [3] | protein stability index [4] |
| --- | --- | --- | --- | --- |
| SPFSVHPKTGRISVPIDLQKVDQF [PRIM1] | 3.18 ± 0.59 | 3.42 ± 0.37 | – | – |
| IDGQGRPRTSQSEETRVWHRRDGK [CAMK2B] | 5.2 ± 0.2 | 5.24 ± 0.11 | – | – |
| LEISGIIMSRVNAYQQGVGYQMLG [PHTF1] | 2.81 ± 0.35 | 2.63 ± 0.51 | – | – |
| LLDALSPEQLVLTLLEAEPPHVLI [ESR2] | 2.55 ± 0.57 | 2.08 ± 0.18 | – | – |
| FQASNPYLPTRGGTTMASGGRFRC [TRIM55] | 2.54 ± 0.65 | 3.14 ± 0.7 | – | – |
| IVPNSNGVITTTPTPPGQYFYPRG [JUNB] | 3.16 ± 0.27 | 3.35 ± 0.2 | – | – |
| EGGDESDLSSESSIKKKFLKRKGK [EHMT1] | 5.54 ± 0.22 | 5.34 ± 0.56 | – | – |
| WKYFKGNFYYFSLIPKTWYSAEQF [CD207] | 3.12 ± 0.47 | 2.78 ± 0.71 | – | – |
| PTARHFQEHPRQQLATSSFLLFLL [MOSPD3] | 2.2 ± 0.24 | 2.23 ± 0.4 | – | – |
| RHKSGVHQPPQAGAGDVVLLQREL [LYSMD4] | 4.08 ± 0.22 | 4.16 ± 0.092 | – | – |
| VGRLYAVYDQAVSIFYDLPQGSGF [SMAD6] | 2.54 ± 0.47 | 2.39 ± 0.65 | – | – |
| LLADVKGARAALNEIESRHRELLR [STX11] | 3.03 ± 0.23 | 3.3 ± 0.41 | – | – |
| GWSLGRWTHDGIDINNNFPDLNTL [CPXM2] | 2.01 ± 0.085 | 2.34 ± 0.091 | – | – |
| GRYRDARMNDLHYLNLDTWEWNEL [KLHDC2] | 2.86 ± 0.24 | 2.88 ± 0.25 | – | – |
| YERLARILLQEIPIRSISLRSCYF [FBXO39] | 2.92 ± 0.28 | 2.56 ± 0.26 | – | – |
| LNHGASVNNTTLTNSTPLRAACFD [FEM1C] | 3.98 ± 0.31 | 3.94 ± 0.14 | – | – |
| EGARAAGLGELGAALLQLVRRLQA [ESRRA] | 3.04 ± 0.44 | 3 ± 0.18 | – | – |
| HILKARKVLTEPEVRYYLRQIVSG [PLK2] | 2.17 ± 0.53 | 2.33 ± 0.43 | – | – |
| IQDGTIHLYIYSIHSIPKGTEITI [KMT2E] | 2.48 ± 0.43 | 3.24 ± 0.15 | – | – |
| NKHLFYAEDFSTMDEISEKLKKGI [MATN2] | 3.79 ± 0.36 | 3.76 ± 0.39 | – | – |
| LPECLEYEEEFDYETESETESEIE [GNAS] | 5.3 ± 0.15 | 5.26 ± 0.23 | – | – |
| TAYWALAGSIGGLFFAVGIAQYAL [SLC22A15] | 3.06 ± 0.15 | 2.89 ± 0.18 | – | – |
| KNMDQVAPVANSYRGTLKRQPAFD [ETS2] | 3.99 ± 0.41 | 4.15 ± 0.21 | – | – |

| Sequence | protein stability index [1] | protein stability index [2] | protein stability index [3] | protein stability index [4] |
| --- | --- | --- | --- | --- |
| VQGLEGIKMAMVACGDAFTVAIGA [NEK8] | 2.79 ± 0.71 | 2.95 ± 0.46 | – | – |
| DEDDEDEDEDEDEDEDEDKEEEEE [TAF7L] | 5.46 ± 0.4 | 5.51 ± 0.1 | – | – |
| LLSILPSLLGLLSFPRNNISYLVL [JAGN1] | 3.155 ± 0.027 | 3.1 ± 0.43 | – | – |
| HSKGHKSSRQEKRPLCAQGDWHSP [ELOA2] | 3.93 ± 0.28 | 4.23 ± 0.37 | – | – |
| AQAHRIHIDPEIQDGSPTTSRRPS [PDLIM4] | 5.31 ± 0.43 | 5.34 ± 0.22 | – | – |
| GASLRLAVEDGLQQFKQYSRHVTT [M1AP] | 3.06 ± 0.15 | 3.19 ± 0.43 | – | – |
| QKNFELAFTMAENLANCERLIEVE [SMTNL2] | 2.45 ± 0.2 | 2.88 ± 0.67 | – | – |
| LETFGHLLSIGPELPKPEVISQLE [ZNF8] | 3.94 ± 0.38 | 3.93 ± 0.19 | – | – |
| RPEKHTKEQILEFLVLEQFLTILP [ZNF232] | 3.03 ± 0.62 | 3.4 ± 0.66 | – | – |
| FVRLFVDENLDRMVPISKQPKEKI [NOL4L] | 2.41 ± 0.098 | 2.65 ± 0.12 | – | – |
| PARAPPEPPHNLFCAPGSWEWNEL [SERTAD3] | 3.36 ± 0.3 | 3.32 ± 0.32 | – | – |
| RKDLAKLHREVRSTPLTATPGGRG [VTI1B] | 4.38 ± 0.17 | 4.45 ± 0.17 | – | – |
| ILGVIGLFTIPLLYRQHQAQIDQY [RTN2] | 3.28 ± 0.71 | 3.1 ± 0.84 | – | – |
| FSSSSQEAFAASAVGSGERRGGGP [ZBTB22] | 3.66 ± 0.32 | 4.03 ± 0.34 | – | – |
| VQHERIHTGDKPYKCAECGKSFCH [ZNF8] | 4.54 ± 0.33 | 4.68 ± 0.16 | – | – |
| KSPSSPQAAFTQQGMEGIKVFLHE [TBX5] | 3.58 ± 0.23 | 3.68 ± 0.26 | – | – |
| RGELSARQMHLARFLRMLLRLADE [RAD51] | 2.2 ± 0.27 | 2.42 ± 0.4 | – | – |
| QQPSLNTMIQQQNMQQPMNVMTQS [CLINT1] | 4.41 ± 0.21 | 4.52 ± 0.087 | – | – |
| KYDPKTQEWSFLPSITRKRRYVAS [KLHL12] | 3.15 ± 0.4 | 2.93 ± 0.27 | – | – |
| KSSGRFLWIKFFAAGELESMGFSA [NETO1] | 2.59 ± 0.54 | 2.64 ± 0.73 | – | – |
